Results taken from the DeepSol protein solubility set.

Test: soluble on expression in E. coli; label from the status in PepcDB or PDB records
For “MSLDVTAKYELIGLMAYPIRHSLSPEMQNKALEKAGLPFTYMAFEVDNDSFPGAIEGLKALKMRGTGVSMPNKQLACEYVDELTPAAKLVGAINTIVNDDGYLRGYNTDGTGHIRAIKESGFDIKGKTMVLLGAGGASTAIGAQGAIEGLKEIKLFNRRDEFFDKALAFAQRVNENTDCVVTVTDLADQQAFAEALASADILTNGTKVGMKPLENESLVNDISLLHPGLLVTECVYNPHMTKLLQQAQQAGCKTIDGYGMLLWQGAEQFTLWTGKDFPLEYVKQVMGFGAEGGSHHHHHH”, the “soluble on expression in E. coli” value was “soluble”. In the case of “MLRPYVAEWFRSTYGSFTEPQRQAIPLVKQGKSVLITSPTGTGKTLAAFLGVIDEILFLMENRWEEKGILAVYVSPLRALNNDIRRNLEEPLRGIEEKAREMGLEPPRVKVAVRTSDTTPYEKQKMVKDPPHILITTPESLAAALAAPKFRERLSTVKWVVLDEIHELASNKRGAHLMVSVERLEELVREAGGKPLRRIGLSATIAPLDVVANFLGGFDDEGRPREVHIVDARFAKPIDIKVITPDVDLLRDPPDKINEAIYRKIAELVKQHRTTLIFTNTRSATERVVHKLKQILVKEGIASEDQIEAHHSSLSRNLRLDVEERLKRGELKVVVSSTSLELGIDIGYIDLVILLSSPKSVSRLLQRVGRAGHRIRDVSKGRLIVVDRDDLVECSVLADCAMKKFIDRVRIPMKPLDVLAQHIVGMSIEKKWRLEDAYRVVKRAYNFKDLSFEEFMSVVRFLAGKHGLEGEGVYSKIWLDEEEGLFGRKKSARMIYLLNVGVIPDETKIRVYTRDGKYVGDLEEEFVEILVPGDVFVLGGRTYRFLKSEGLRVIVERADDARPTVPSWFSEMLPLSFDSALKVGEFRRVFSALASSNPRAAVEKLVKEYYLEERAAATIVEYILEQLGYIGVVPSDKLVLIEYFPYEDGWGIVFHTLFGRRVNDALSRAYAVALSRRIGLPVRVAVTDNGFMLTVSEAGKPDASLLEKLIRDVTPENIRGILEEAISRTELMKRRFKHVAARMFIVLRRYKGKEVSPERLQLNSQKLLEVFLEEMKDSPPIRETFREILEDYMDIGAAGKVLEWIRKGEIEIVIKGPLPYPSPMAHSIVVRGYSDVVLMEDRRKMLMILREKVLEYIRKGRAAPTWVGGDGKGRLLKEEQ”, the “soluble on expression in E. coli” value was “soluble”. For “MADKSADIQTPAPAANTSISATQQPAIQQPNVSGTVWIRQKVALPPDAVLTVTLSDASLADAPSKVLAQKAVRTEGKQSPFSFVLSFNPADVQPNARILLSAAITVNDKLVFITDTVQPVINQGGTKADLTLVPVQQTAVPVQASGGATTTVPSTSPTQVNPSSAVPAPTQYLEHHHHHH”, the “soluble on expression in E. coli” value was “soluble”. With “MSIQHFRVALIPFFAAFCLPVFAHPETLVKVKDAEDQLGARVGYIELDLNSGKILESFRPEERFPMMSTFKVLLCGAVLSRIDAGQEQLGRRIHYSQNDLVEYSPVTEKHLTDGMTVRELCSAAITMSDNTAANLLLTTIGGPKELTAFLHNMGDHVTRLDRWEPELNEAIPNDERDTTMPVAMATTLRKLLTGELLTLASRQQLIDWMEADKVAGPLLRSALPAGWFIADKSGAGERGSRGIIAALGPDGKPSRIVVIYTTGSQATMDERNRQIAEIGASLIKHW” the “soluble on expression in E. coli” value was “soluble”. In the case of “MPVKKVEKNILVLHGADKMFELVDKVEDYPHFLPWYSKTEVIGRSGNELKARLFMDYMHVRQSFATHNRNIPGREIRMELLEGPFKTLRGTWKFIDLGDDMCKIEFNLEYDFSNAVLSALISPVFNHLSTTLVEAFVKEADRRYA”, the “soluble on expression in E. coli” value was “not soluble”. In the case of “MAIVNATDQTFAAETKDGLTLVDFWAPWCGPCRMIAPVLEELDREMGDKVKIVKVNVDENQETASKFGVMSIPTLLVFKNGELVDKAIGYQPKEALVQLVGKHVS”, the “soluble on expression in E. coli” value was “soluble”. In the case of “MRDNKELTESKLHLDEFSAYLMSIDKSDSTIKTYIEHIQAFAKWFEETNCIDFDPAVITEIDIRDMRSYLQGTRHLKETTINLRLASLKCYFSFLESEKYIKHNPARNIRKIKLQSPNIAKSLDEQTYRALRRHVYRGGNKAHIAMFEIFTRCGVRNFELINIRLTDFDISDRKGTLKIVGKLNKVRYIPLHKDVRDAINNWMEIRKNIKTEYDNLFISERKTPYTRSGIWKIFKKYCEQIGITDVTIHSFRHYFCRTLLKNGVDISVVAKLAGHSSGFVTAQVYTIPRQEELEAAIETLV”, the “soluble on expression in E. coli” value was “not soluble”. For “SSSSSSPAIEPDTPDLICQLDNVQGMVDALTCVRWKRHQDALVELSEHGIVLIVEESGCLQAKVYLQRELFTKYEYGAQGRPRFGISLGLLVDCLNTFSSPGHSNTIEIKYPGPDMELLLKSVDTLNSCIYSEIRTRIPETVTWDYNFEQAGIAPLTFTVKSAALKEAIDDLEWPGSSVQISLQKEPPCVIFRGEGHGDLQIDFMYYANTDLLLAFHCDTEVSYGYKYKFLKATTANIPGNVVRENRRSKLTIGRGGMLKVQHLVSVSKALAPQVESAGYQPPSRIAYIEFFVKPEEPAD”, the “soluble on expression in E. coli” value was “soluble”. With “MSLAVDTSGEFMRHLYIEEGRTVCASATSRNRRPTSESPHSDDVVVVEGMLRGRPETRVHAMFDGFQGRHSAMWLAQNVMNYLNDLRDVNEEEITRQFERMDGDLRAANLPGGSSALIIFVRYEKKPTEARVVGRQIVPEGAKEFTSVAEALGGPLMPVVAMNFRRDPRAAKGIYTIHVASLGNSRCVLKSGRTAIHLSTPHTASSHKERHRVQAAGGVFTTVNGELLLGGVVPMTRAFGSFDFKKGGQGKLQQDLVSAVPDVTTFFAYPGDDIVAGTAGAFAHFRSHAAIAAAIALYPVSPETVLDAAKAMVVNAKRRKVTKNISTFVRHLPESRTRSQKMLEGTSGENGEEDFSIDRTNELTQALQAGFFSFLLYYEGHHHHHH” the “soluble on expression in E. coli” value was “soluble”. For “MGSDKIHHHHHHSCGDKMNKNTGALEFDSIQVNETAHLFGDTAKPACNLTINFAYPVKSTDNKLKDSLNSYFIAACFGEGYIGEKPAQVVKEYTEHYVKEYRTDLEPMYAEDEKNKESEGSIGAWYSYYKGIESHVQLYYKNLLVYRINYNEYTGGAHGIYMTTFLNMDLINLRPLKLDDIFTGDYKEALTDLLWNQLMADKKVTTHEALEDMGYGSTGDIAPTENFYLDKDGITFYYNVYDITPYAMGPVEIKIPYEMMEHMLGSNPIIGEMKSK”, the “soluble on expression in E. coli” value was “not soluble”. For “MSTLIECGASPFIPGFALKDVRLENGLTVRVAIGGSGSPLVLLHGHPQNHTTWRKVAPTLAQNHTVILPDLRGYGDSDKPTSDPAHRTYSKRTMAQDIVMLMDALGFSRFAFVGHDRGGRVGHRLALDYPDRVTCCTFIDIAPTATMYALTDKSFATRYFWWFFLIQPFPLPETMIAHDPAFFLRKHISGQLKIEGATSQEAFNEYLRCYQNPEMIHAICEDYRAAATIDLDDDAADTSARIRCPLQLLWGGLGTVGQLYNVVGTWKEKALNVQGEALPCGHSPQEECPEYFIQKLQSFLHSVL”, the “soluble on expression in E. coli” value was “soluble”. In the case of “MGSDKIHHHHHHMQFEPALQQGRLVKRYKRFLADIKLADGSEMTIHCPNTGSMRNCLFPGEAVWFSTSANPKRKYAYTWELMGTPNGGFIGIHSGSANALAEEAIHSGIIKELTGYDTLSREVKYGDENSRIDILLQGAQKPDCYIEVKSCTLLEDGQGFFPDAVSLRGQKHLRELMHMANLGHRAVLLFVVQHSEIFSVAPAAHIDHEYANLLKKATLSGVEVLAYRCEMSPTEIRLAQACPVRV”, the “soluble on expression in E. coli” value was “not soluble”. With “MEIKTTTTLHRVVEETTKPLGATLVVETDISRKDVNGLARGHLVDGIPLCTPSFYADIAMQVGQYSMQRLRAGHPGAGAIDGLVDVSDMVVDKALVPHGKGPQLLRTTLTMEWPPKAAATTRSAKVKFATYFADGKLDTEHASCTVRFTSDAQLKSLRRSVSEYKTHIRQLHDGHAKGQFMRYNRKTGYKLMSSMARFNPDYMLLDYLVLNEAENEAASGVDFSLGSSEGTFAAHPAHVDAITQVAGFAMNANDNVDIEKQVYVNHGWDSFQIYQPLDNSKSYQVYTKMGQAKENDLVHGDVVVLDGEQIVAFFRGLTLRSVPRGALRVVLQTTVKKADRQLGFKTMPSPPPPTTTM” the “soluble on expression in E. coli” value was “soluble”. In the case of “MGSDKIHHHHHHMADKGIIFSDAMVRALLDGTKTQTRRLCAWPNNPNTPQLTYIVACDEPGWFGDEEGEVQFRVPHAQGDRLYVREAWSVRGTYTDVVEVGYRASANRSHTEFVEQWPVGDAIPGKGSWPQWPKYGPSIHMPRWASRMWLQITDVRVQRLQEISAADCRAEGLERGAVGGLLPAYRGSADLEWRIYADDAYHDLWDSLHGESGTRWADNPWVTVYTFDVHKGNIGKAARG”, the “soluble on expression in E. coli” value was “not soluble”. For “MGSDKIHHHHHHMMKQIIAMAGGGFSMEPDNLSLDQYILNQSKREQHRICFLPTASGDSQNYIQRFYHAFQTLDCVPSHLSLFKPPSSDLVSFVMEMDVIYVGGGNTRNLLVLWKEWGLDHILREAWKNGVVVAGISAGAICWFEEGVTDSAGPLTSLKSLGFLQGSFCPHYDGEKDRRPAYHQLISNKFLCSGYAADDGAALHFINDQLFQTVSSRSGAKAYRVMMAEHEIAEIPLPVKYVRVKLAEYYLYSSFFQIDFMIR”, the “soluble on expression in E. coli” value was “not soluble”. With “MINLTNLASSLARVALSDSTKPTIDRAMNVVSHIAGKVALQVNSSLLEQKGRLNERQQKGLEVILDALLGKEPVTHVETHEGGGRFNLARAAFDVASVVWERDQSMRNVMSFLGINDSKGNLLFSLGKTLADAMARPEPENGKHNSEANYAFFSSNLKLNKLMNDIADQVINEIRQQNTDRVRRPTPGPSWRPESTQQQARPQTPPSARPQANSAPPPPKAQPDAGAQRPSTERPPKTTPTGASAKVDDSAPAKPPVKQLYEHLGLSDMTADLSAVKKAYKKAALKYHPDKNAGNVAEANERFKKISNAFRILSDPELRTKYDNGVIDENG” the “soluble on expression in E. coli” value was “not soluble”. With “MSLKLLPAKQEAIEFVHFANVINDYLYKYPDKRNSGGTLTSEQIGITPVYDIHHIIYGKRVYIWSADTEGLMSALQQQTKHSAMLGRVKNKKIVDNQGNDMGVPVPSSIPEEAIVLINEGHHHHHH” the “soluble on expression in E. coli” value was “soluble”. With “MKLFQVLIISMICLALVEERRDRSNRRRNQSEGGSRSRSESWLGSSGSSRSRSSGRSAASAGSSQAASPAGASAIGSSQAGSSAGSPAAAAAGGSGGADAGAILNGVGGLMRSVGGLAGAAGGAAGGAAGAPAGAPAGASAGASAAPAAQDAGTVLGGVSGVLTGVSGIVSAAGAAKA” the “soluble on expression in E. coli” value was “not soluble”. In the case of “ATYAAASSALVPRGSHMYAPKLQGPVAVYTWEGNQVNITCEVFAYPSATISWFRDGQLLPSSNYSNIKIYNTPSASYLEVTPDSENDFGNYNCTAVNRIGQESLEFILVQADTPSSPSIDQVEPYSSTAQVQFDEPEATGGVPILKYKAEWRAVGEEVWHSKWYDAKEASMEGIVTIVGLKPETTYAVRLAALNGKGLGEISAASEFKTQPVQGE”, the “soluble on expression in E. coli” value was “soluble”. For “MKGYQSLVFNFFFLKLSAENESTPIQQLLEHFLRQLQRKDPHGFFAFPVTDAIAPGYSMIIKHPMDFGTMKDKIVANEYKSVTEFKADFKLMCDNAMTYNRPDTVYYKLAKKILHAGFKMMSKERLLALKRSMSFMQDMDFSQQAALLGNEDTAVEEPVPEVVPVQVETAKKSKKPSREVISCMFEPEGNACSLTDSTAEEHVLALVEHAADEARDRINRFLPGGKMGYLKRNGDGSLLYSVVNTAEPDADEEETHPVDLSSLSSKLLPGFTTLGFKDERRNKVTFLSSATTALSMQNNSVFGDLKSDEMELLYSAYGDETGVQCALSLQEFVKDAGSYSKKVVDDLLDQITGGDHSRTLFQLKQRRNVPMKPPDEAKVGDTLGDSSSSVLEFMSMKSYPDVSVDISMLSSLGKVKKELDPDDSHLNLDETTKLLQDLHEAQAERGGSRPSSNLSSLSNASERDQHHLGSPSRLSVGEQPDVTHDPYEFLQSPEPAASAKT”, the “soluble on expression in E. coli” value was “soluble”.
